The supplement of paper PMC9170038

Tested on: MS2 coat protein
Assay: apparent KD of MS2 coat protein; designed switch direction (-1 OFF switch, 1 ON switch): -1; higher = weaker reporter binding
In short: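 Transcription of designed RNA switches on Illumina chips was done by stalled E. coli RNA polymerase. SNAP-549-labelled MS2 coat protein was then titrated in doubling steps from 0.7 or 1.5 nM to 3 µM, with steps of 0.8–1.5 h at the lowest and 10–20 min at the highest concentration. The per-design median over clusters of curve-fitted normalised fluorescence is reported as apparent KD.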

[1] = Eterna round: R95, input ligand: microRNA oligo, concentration not stated
[2] = Eterna round: R95, input ligand: FMN 200 uM
[3] = Eterna round: R95, input ligand: none
[4] = input ligand: microRNA oligo, concentration not stated

| Sequence | apparent KD of MS2 coat protein (input ligand: FMN 200 uM) | apparent KD of MS2 coat protein (input ligand: none) | apparent KD of MS2 coat protein [1] | apparent KD of MS2 coat protein [2] | apparent KD of MS2 coat protein [3] | apparent KD of MS2 coat protein [4] |
| --- | --- | --- | --- | --- | --- | --- |
| GAGUAGUAAGGAUAUGUCUCUGGUGGCUACGGUCACUAGAGGCAGAAGGUACAUGAGGAUCACCCAUGUUCCUC [ExDelusion 8 - Jieux - Exclusion 4] (Eterna round: R97, puzzle: Exclusion 4) | 186 nM | 55.8 nM |  |  |  |  |
| GAGUGACAUGAGGAUCACCCAUGUGAGGAUAUCGGACGGACCAAAUUAACAACAAACGCGAGAAGGCACAUCGG [Exclusion 1 V19] (puzzle: Exclusion 1) |  |  | 74.9 nM |  |  |  |
| GAGUGACAUGAGGAUCACCCAUGUGAGGAUAUCGGACGGACCAAAUUAACAAUAAAUGCGAGAAGGCACAUCGG [Exclusion 1 V13] (puzzle: Exclusion 1) |  |  | 55.4 nM |  |  |  |
| GAGUGACAUGAGGAUCACCCAUGUGAGGAUAUCGGACGGACCAAAUUAACAAUAAUUGCGAGAAGGCACAUCGG [Exclusion 1 V14] (puzzle: Exclusion 1) |  |  | 52.1 nM |  |  |  |
| GAGUGACAUGAGGAUCACCCAUGUGAGGAUAUCGGACGGACCUUGUUGGCUUCCGCCGCGAGAAGGCACCUCGG [Exclusion 1 V27] (puzzle: Exclusion 1) |  |  | 32.5 nM |  |  |  |
| GAGUGAUGAGGAUAUACAUGAGGAUCACCCAUGUGCUUCAGCUAGGAGACUAGCAUUGGUAGAAGGCAUUACUC [Mod of lroppy 7 - Jieux - Exclusion 3] (Eterna round: R97, puzzle: Exclusion 3) | 90.1 nM | 15.8 nM |  |  |  |  |
| GAGUGCUGAGGAUAUACAUGAGGAUCACCCAUGUGCUUCAGCUAGGAGACUAGCAUCCGUAGAAGGCAGUACUC [Mod of lroppy 24 - Jieux - Exclusion 3] (Eterna round: R97, puzzle: Exclusion 3) | 37.5 nM | 14.3 nM |  |  |  |  |
| GAGUUAGCGUGUGGAAUAUACAUGAGGAUCACCCAUGUUAGCUUAUAUAUUGCUCGUCUUAUAACAACACUUAACUG [Mod JX-Electric-eye4] (Eterna round: R97, puzzle: Sensor, turn-off variant 1) | 42.7 nM | 45.8 nM |  |  |  |  |
| GAUAGAGAGCAGGAUAUCUUGGAUAAGUAUAGUAGAGAAGGGCUCACAUGAGGAUCACCCAUGUGGUCCAAGAU [JL Dibiri mod 12] (puzzle: Exclusion 6) |  |  | 14.8 nM | 28 nM | 15.8 nM |  |
| GAUAGUGGAGGAUAUACAUGAGGAUCACCCAUGUGAAGUUGCGUAAGUGACCCUUCCUGUAGAAGGCCAAGCAA [Eternabot (Original) Solution 31] (Eterna round: R97, puzzle: Exclusion 3) | 256 nM | 31.9 nM |  |  |  |  |
| GAUCAACAUGAGGAUCACCCAUGUGAGGAUAUGAUACUAUGUACUUCGGUACAUAGUAUCAGAAGGCACUAGGA [Ex1-3: 40] (puzzle: Exclusion 1) |  |  | 64 nM |  |  |  |
| GAUCAUGCAGGAUAUGCAGUAACCAUGAAAACAUGGUUGCAACAUGAGGAUCACCCAUGUAGAAGGGCAUGAUC [Omei Ex2 A3] (Eterna round: R97, puzzle: Exclusion 2) | 10.8 nM | 13.9 nM |  |  |  |  |
| GAUCCACAUGAGGAUCACCCAUGUGAGGAUAUGAUACUAUGUACUUCGGUACAUAGUAUCAGAAGGCACGGAUC [Ex1-3: 54] (puzzle: Exclusion 1) |  |  | 24.6 nM |  |  |  |
| GAUCCGUUAGGAUAUCGUGAGGACAGCUAGUCUUAUUAACACGAGAAGGAACAUGAGGAUCACCCAUGUGGUAA [Eternabot (L1) Solution 14] (Eterna round: R97, puzzle: Exclusion 4) | 279 nM | 62.3 nM |  |  |  |  |
| GAUCGACAUGAGGAUCACCCAUGUCAGGAUAUCGUCACUGGAGCCUCGGCUCCAGUGACGAGAAGGGACAUAAU [E1/13-A2] (Eterna round: R97, puzzle: Exclusion 1) | 46.8 nM | 39.4 nM |  |  |  |  |
| GAUGGACAUGAGGAUCACCCAUGUAAGGAUAUUGUUUGUGGCUAGUUUUGGUUACGGGCGAGAAGGUACUCGUC [-19.7, -16.7 kcal, A 23%] (Eterna round: R97, puzzle: Exclusion 1) | 39.7 nM | 47.7 nM |  |  |  |  |

| Sequence | apparent KD of MS2 coat protein (input ligand: FMN 200 uM) | apparent KD of MS2 coat protein (input ligand: none) | apparent KD of MS2 coat protein [1] | apparent KD of MS2 coat protein [2] | apparent KD of MS2 coat protein [3] | apparent KD of MS2 coat protein [4] |
| --- | --- | --- | --- | --- | --- | --- |
| GAUGUGGGUUUUCAGAGUAACAUGAGGAUCACCCAUGUAGAAGUUGGAGGGAUCAAGCUUUUUGGUCGUCAUAUGUG [JR_SV3TOV1_Sub051] (Eterna round: R96, puzzle: Sensor v3, turn-off variant 1) | 603 nM | 588 nM |  |  |  | 358 nM |
| GAUGUGGGUUUUCAGAGUAACAUGAGGAUCACCCAUGUAGAAGUUGGAGGGAUCAAGCUUUUUGGUCGUCAUAUGUG [JR_SV3TOV1_Sub051] (puzzle: Sensor v3, turn-off variant 1) |  |  | 511 nM | 442 nM | 509 nM |  |
| GAUUAACAAGCGAGAUCCCACAUGAGGAUCACCCAUGUGCUCGUCUUAUAAGGUACUGUGACGAAAGUCACGGUACC [Mat - Sensor, turn-off var - Eli Mod - D5] (Eterna round: R97, puzzle: Sensor, turn-off variant 1) | 13.5 nM | 15.2 nM |  |  |  |  |
| GAUUAACAUGAGGAUCACCCAUGUGAGGAUAUGGACUUGCCCACUUAACCAUUAGAGUCUAGAAGGCGCAUCUG [1986#25] (Eterna round: R97, puzzle: Exclusion 1) | 32.9 nM | 29.8 nM |  |  |  |  |
| GAUUAUGCAGGCUUUAGGGACAUGAGGAUCACCCAUGUUCGUCUUAUUGAUCUAGGUACGCUGACGUACCUAGAUCU [JL-sv1-2.34 Brourd mod] (puzzle: Sensor v3, turn-off variant 1) |  |  | 42.5 nM | 19.3 nM | 20.4 nM |  |
| GAUUAUGCGAGCUUUAGGGACAUGAGGAUCACCCAUGUUCGUCUUAUUAGUCUAGGUACGCUAACAUACCUAAAUCU [JMF 40] (puzzle: Sensor v3, turn-off variant 1) |  |  | 35.9 nM | 20.2 nM | 22.8 nM |  |
| GAUUAUGCGAGCUUUAGGGACAUGAGGAUCACCCAUGUUCGUCUUAUUAGUCUAGGUGCACUGACAUACCUAAAUCU [JMF 90] (puzzle: Sensor v3, turn-off variant 1) |  |  | 26.1 nM | 19.1 nM | 18.3 nM |  |
| GAUUAUGCGAGCUUUAGGGACAUGAGGAUCACCCAUGUUCGUCUUAUUGAUCUAGGUGCACUAACAUACCUAAAUCU [JMF 34] (puzzle: Sensor v3, turn-off variant 1) |  |  | 41.2 nM | 24 nM | 27.7 nM |  |
| GAUUAUGCGAGCUUUAGGGACAUGAGGAUCACCCAUGUUCGUCUUAUUGGUCUAAGUGCACUGACAUACCUAAAUCU [JMF 84] (puzzle: Sensor v3, turn-off variant 1) |  |  | 31.5 nM | 20.2 nM | 19.6 nM |  |
| GAUUAUGCGAGCUUUAGGGACAUGAGGAUCACCCAUGUUCGUCUUAUUGGUCUGAAUGCACUAACAUACCUAAAUCU [JMF 24] (puzzle: Sensor v3, turn-off variant 1) |  |  | 37 nM | 26.2 nM | 24.8 nM |  |
| GAUUAUGCGAGCUUUAGGGACAUGAGGAUCACCCAUGUUCGUCUUAUUGGUCUGAGUACACUAACAUACCUAAAUCU [JMF 15] (puzzle: Sensor v3, turn-off variant 1) |  |  | 26.4 nM | 18.3 nM | 20.3 nM |  |
| GAUUGACAUGAGGAUCACCCAUGUGAGGAUAUCGGCCGGACCUUGUUAGCUUCCACCGCGAGAAGGCACAUAGG [Exclusion 1 V31] (puzzle: Exclusion 1) |  |  | 25.3 nM |  |  |  |
| GAUUGACAUGAGGAUCACCCAUGUGAGGAUAUCGGCUGGACCGUGUUGGCGUGCCUCUCGAGAAGGCGCAUAGG [Exclusion 1 V54] (puzzle: Exclusion 1) |  |  | 39.9 nM | 64.8 nM | 51.3 nM |  |
| GAUUGACAUGAGGAUCACCCAUGUGAGGAUAUCGGCUGGACCGUGUUGGCUUGCUUCUCGAGAAGGCGCAUAGG [Exclusion 1 V51] (puzzle: Exclusion 1) |  |  | 33.9 nM | 32.7 nM | 36 nM |  |
| GAUUGACAUGAGGAUCACCCAUGUGAGGAUAUCGGCUGGACCGUGUUGGCUUGCUUUUCGAGAAGGCGCAUAGG [Exclusion 1 V49] (puzzle: Exclusion 1) |  |  | 36.8 nM | 55 nM | 35 nM |  |
| GAUUGAGAGCAGGAUAUCUUAGAAAUGUAUUAAAGAGAAGGGCUCACAUGAGGAUCACCCAUGUGGUCCUAGAU [JL Dibiri mod 16] (Eterna round: R96, puzzle: Exclusion 6) | 306 nM | 26.3 nM |  |  |  | 22.8 nM |
